Experimental findings from paper PMC5329690, “A Synthetic Strategy for Conjugation of Paromomycin to Cell-Penetrating Tat(48-60) for Delivery and Visualization into Leishmania Parasites” (International Journal of Peptides, 2017) are described below.

For the series, the system named is Leishmania donovani promastigotes. Description: Intracellular uptake by confocal fluorescence microscopy. It is filed as cell-based. The note with it: L. donovani promastigotes strain MHOM/SD/00/1S-2D, 2 × 10^7 cells/mL in HBSS-Glc; 9 μM conjugate, 4 h, 26°C; washed, DAPI 5 μg/mL, unfixed; confocal fluorescence λex 488 nm/λem 520 nm; representative of two other independent experiments. On the procedure:
Leishmania donovani promastigotes (strain MHOM/SD/00/1S-2D) were resuspended in Hanks' medium supplemented with 10 mM D-glucose (HBSS-Glc) at 2 × 10^7 cells/mL. Afterwards, 9 μM Bodi Fluor 488-labeled PMM-Tat conjugate 6 was added to the parasite suspension and incubated for 4 h in HBSS-Glc. After incubation, non-incorporated 6 was removed by washing the cells with HBSS-Glc. Finally, cells were labeled with DAPI (5 μg/mL, 20 min) before their observation, unfixed, in a Leica TCS–SP2 ABOS confocal laser scanning microscope.
Figure 3 Fluorescence of Leishmania donovani promastigotes incubated with Bodi Fluor 488-labeled PMM-Tat conjugate (9 μM, 4 h, 26°C) and stained with DAPI (5 μg/mL) immediately before observation, unfixed. Settings: conjugate (green, λex = 488 nm/λem = 520 nm); DAPI (blue, λex = 350 nm/λem = 460 nm). Bar = 20 μm. Experiment is representative of two other ones performed independently.
4. Parasite culture and confocal microscopy
Leishmania donovani promastigotes (strain MHOM/SD/00/1S-2D) were resuspended in Hanks’ medium supplemented with 10 mM D-glucose (HBSS-Glc) at 2 × 10^7 cells/mL.
Afterwards, 9 µM BodiFluor™ 488-labeled PMM-Tat conjugate was added to the parasite suspension and incubated for 4 h in HBSS-Glc. After incubation, non-incorporated conjugate was removed by washing the cells with HBSS-Glc. […]

As for “Bodi Fluor-O2Oc-Tat(48-60)-O2Oc-Asp(paromomycin)-amide [compound 6]”, the “intracellular uptake (internalization and cellular pattern)” value is recorded as “can enter the parasite, with a diffuse pattern in all the cytoplasm”.
